Test results as given in the supplement of paper PMC10567573.

B1: FBXO3 (parent)
chain: DEEERRRRVFDVPIRRRRCSRLF

Variants of: B1
Test: protein stability index of a GFP-peptide fusion (GPS, HEK-293T) (PSI 1-6); higher = more stable
Conditions: c terminus: native
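Further: lentivirally expressed fusions sorted by FACS into six bins by GFP to DsRed ratio, PSI derived from sequencing read proportions per bin multiplied by bin number.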

Variant	protein stability index
YEEERRRRVFDVPIRRRRCSRLF [D1Y]	2.57
WEEERRRRVFDVPIRRRRCSRLF [D1W]	1.8
VEEERRRRVFDVPIRRRRCSRLF [D1V]	2.34
DEEESRRRVFDVPIRRRRCSRLF [R5S]	3.55
DEEEHRRRVFDVPIRRRRCSRLF [R5H]	3.41
DEEEPRRRVFDVPIRRRRCSRLF [R5P]	3.3
DEEEERRRVFDVPIRRRRCSRLF [R5E]	4.12
DEEEDRRRVFDVPIRRRRCSRLF [R5D]	3.64
DEEEYRRRVFDVPIRRRRCSRLF [R5Y]	2.85
DEEEMRRRVFDVPIRRRRCSRLF [R5M]	3.59
DEEEFRRRVFDVPIRRRRCSRLF [R5F]	3.24
DEEEWRRRVFDVPIRRRRCSRLF [R5W]	2.23
DEEEQRRRVFDVPIRRRRCSRLF [R5Q]	4.1
DEEEIRRRVFDVPIRRRRCSRLF [R5I]	3.44
DEEEGRRRVFDVPIRRRRCSRLF [R5G]	3.54
DEEETRRRVFDVPIRRRRCSRLF [R5T]	3.51
DEEEARRRVFDVPIRRRRCSRLF [R5A]	3.9
DEEEKRRRVFDVPIRRRRCSRLF [R5K]	3.32
DEEENRRRVFDVPIRRRRCSRLF [R5N]	3.77
DEEELRRRVFDVPIRRRRCSRLF [R5L]	3.12
DEEECRRRVFDVPIRRRRCSRLF [R5C]	2.57
DEEEVRRRVFDVPIRRRRCSRLF [R5V]	3.25
DEEHRRRRVFDVPIRRRRCSRLF [E4H]	1.99
DEECRRRRVFDVPIRRRRCSRLF [E4C]	2.58
DEEWRRRRVFDVPIRRRRCSRLF [E4W]	1.73

Variant	protein stability index
DEEGRRRRVFDVPIRRRRCSRLF [E4G]	2.48
DEEQRRRRVFDVPIRRRRCSRLF [E4Q]	2.72
DEETRRRRVFDVPIRRRRCSRLF [E4T]	2.14
DEEKRRRRVFDVPIRRRRCSRLF [E4K]	1.98
DEEIRRRRVFDVPIRRRRCSRLF [E4I]	2.16
DEELRRRRVFDVPIRRRRCSRLF [E4L]	1.59
DEEPRRRRVFDVPIRRRRCSRLF [E4P]	2.29
DEESRRRRVFDVPIRRRRCSRLF [E4S]	2.08
DEEYRRRRVFDVPIRRRRCSRLF [E4Y]	2.14
DEERRRRRVFDVPIRRRRCSRLF [E4R]	2.9
DEEFRRRRVFDVPIRRRRCSRLF [E4F]	2.13
DEEMRRRRVFDVPIRRRRCSRLF [E4M]	3.23
DEENRRRRVFDVPIRRRRCSRLF [E4N]	1.92
DEEVRRRRVFDVPIRRRRCSRLF [E4V]	1.86
DEEDRRRRVFDVPIRRRRCSRLF [E4D]	3.66
DEEARRRRVFDVPIRRRRCSRLF [E4A]	1.98
DEEERRRLVFDVPIRRRRCSRLF [R8L]	2.94
DEEERRRPVFDVPIRRRRCSRLF [R8P]	3.63
DEEERRRGVFDVPIRRRRCSRLF [R8G]	4.29
DEEERRRHVFDVPIRRRRCSRLF [R8H]	3.1
DEEERRRDVFDVPIRRRRCSRLF [R8D]	3.58
DEEERRRNVFDVPIRRRRCSRLF [R8N]	3.35
DEEERRRIVFDVPIRRRRCSRLF [R8I]	2.88
DEEERRRQVFDVPIRRRRCSRLF [R8Q]	3.66
DEEERRREVFDVPIRRRRCSRLF [R8E]	3.64

Variant	protein stability index
DEEERRRWVFDVPIRRRRCSRLF [R8W]	2.4
DEEERRRTVFDVPIRRRRCSRLF [R8T]	3.86
DEEERRRSVFDVPIRRRRCSRLF [R8S]	3.01
DEEERRRAVFDVPIRRRRCSRLF [R8A]	3.74
DEEERRRKVFDVPIRRRRCSRLF [R8K]	2.87
DEEERRRYVFDVPIRRRRCSRLF [R8Y]	1.95
DEEERRRMVFDVPIRRRRCSRLF [R8M]	2.89
DEEERRRFVFDVPIRRRRCSRLF [R8F]	1.28
DEEERRRVVFDVPIRRRRCSRLF [R8V]	3.66
DEEERRRCVFDVPIRRRRCSRLF [R8C]	2.33
DWEERRRRVFDVPIRRRRCSRLF [E2W]	2.25
DCEERRRRVFDVPIRRRRCSRLF [E2C]	1.71
DVEERRRRVFDVPIRRRRCSRLF [E2V]	1.95
DPEERRRRVFDVPIRRRRCSRLF [E2P]	2.15
DREERRRRVFDVPIRRRRCSRLF [E2R]	2.33
DHEERRRRVFDVPIRRRRCSRLF [E2H]	1.79
DKEERRRRVFDVPIRRRRCSRLF [E2K]	1.36
DLEERRRRVFDVPIRRRRCSRLF [E2L]	1.45
DFEERRRRVFDVPIRRRRCSRLF [E2F]	1.97
DDEERRRRVFDVPIRRRRCSRLF [E2D]	3.08
DTEERRRRVFDVPIRRRRCSRLF [E2T]	1.65
DAEERRRRVFDVPIRRRRCSRLF [E2A]	1.49
DSEERRRRVFDVPIRRRRCSRLF [E2S]	2.21
DMEERRRRVFDVPIRRRRCSRLF [E2M]	1.9
DGEERRRRVFDVPIRRRRCSRLF [E2G]	2.58

Variant	protein stability index
DIEERRRRVFDVPIRRRRCSRLF [E2I]	2.52
DQEERRRRVFDVPIRRRRCSRLF [E2Q]	3.19
DNEERRRRVFDVPIRRRRCSRLF [E2N]	3.05
DEYERRRRVFDVPIRRRRCSRLF [E3Y]	1.84
DESERRRRVFDVPIRRRRCSRLF [E3S]	1.91
DEIERRRRVFDVPIRRRRCSRLF [E3I]	1.99
DEGERRRRVFDVPIRRRRCSRLF [E3G]	2.19
DENERRRRVFDVPIRRRRCSRLF [E3N]	2.79
DEHERRRRVFDVPIRRRRCSRLF [E3H]	2.18
DEVERRRRVFDVPIRRRRCSRLF [E3V]	2.54
DEQERRRRVFDVPIRRRRCSRLF [E3Q]	2.57
DEPERRRRVFDVPIRRRRCSRLF [E3P]	2.32
DECERRRRVFDVPIRRRRCSRLF [E3C]	1.94
DEDERRRRVFDVPIRRRRCSRLF [E3D]	2.63
DELERRRRVFDVPIRRRRCSRLF [E3L]	1.48
DETERRRRVFDVPIRRRRCSRLF [E3T]	1.81
DEAERRRRVFDVPIRRRRCSRLF [E3A]	1.88
DERERRRRVFDVPIRRRRCSRLF [E3R]	2.34
DEKERRRRVFDVPIRRRRCSRLF [E3K]	2.68
DEMERRRRVFDVPIRRRRCSRLF [E3M]	2.53
DEEERRRRVFDAPIRRRRCSRLF [V12A]	3.05
DEEERRRRVFDDPIRRRRCSRLF [V12D]	2.71
DEEERRRRVFDCPIRRRRCSRLF [V12C]	1.73
DEEERRRRVFDEPIRRRRCSRLF [V12E]	2.81
DEEERRARVFDVPIRRRRCSRLF [R7A]	3.6

Variant	protein stability index
DEEERRYRVFDVPIRRRRCSRLF [R7Y]	2.51
DEEERRNRVFDVPIRRRRCSRLF [R7N]	3.8
DEEERRCRVFDVPIRRRRCSRLF [R7C]	2.89
DEEERRWRVFDVPIRRRRCSRLF [R7W]	1.97
DEEERRKRVFDVPIRRRRCSRLF [R7K]	2.79
DEEERRDRVFDVPIRRRRCSRLF [R7D]	4
DEEERRERVFDVPIRRRRCSRLF [R7E]	3.88
DEEERRMRVFDVPIRRRRCSRLF [R7M]	2.3
DEEERRHRVFDVPIRRRRCSRLF [R7H]	3.06
DEEERRTRVFDVPIRRRRCSRLF [R7T]	3.67
DEEERRQRVFDVPIRRRRCSRLF [R7Q]	3.69
DEEERRVRVFDVPIRRRRCSRLF [R7V]	3.01
DEEERRFRVFDVPIRRRRCSRLF [R7F]	2.61
DEEERRSRVFDVPIRRRRCSRLF [R7S]	4.28
DEEERRGRVFDVPIRRRRCSRLF [R7G]	3.64
DEEERRLRVFDVPIRRRRCSRLF [R7L]	3.19
DEEERRIRVFDVPIRRRRCSRLF [R7I]	2.8
DEEERRPRVFDVPIRRRRCSRLF [R7P]	3.71
DEEERRRRVHDVPIRRRRCSRLF [F10H]	4.08
DEEERRRRVNDVPIRRRRCSRLF [F10N]	4.45
DEEERRRRVCDVPIRRRRCSRLF [F10C]	3.43
DEEERRRRVTDVPIRRRRCSRLF [F10T]	4.33
DEEERRRRVKDVPIRRRRCSRLF [F10K]	4.19
DEEERRRRVPDVPIRRRRCSRLF [F10P]	4.32
DEEERRRRVGDVPIRRRRCSRLF [F10G]	4.62

Variant	protein stability index
DEEERRRRVRDVPIRRRRCSRLF [F10R]	3.85
DEEERRRRVLDVPIRRRRCSRLF [F10L]	3.06
DEEERRRRVQDVPIRRRRCSRLF [F10Q]	4.56
DEEERRRRVVDVPIRRRRCSRLF [F10V]	3.94
DEEERRRRVIDVPIRRRRCSRLF [F10I]	3.84
DEEERRRRVEDVPIRRRRCSRLF [F10E]	4.16
DEEERRRRVWDVPIRRRRCSRLF [F10W]	2.09
DEEERRRRVYDVPIRRRRCSRLF [F10Y]	3.22
DEEERRRRVMDVPIRRRRCSRLF [F10M]	3.87
DEEERRRRVSDVPIRRRRCSRLF [F10S]	4.54
DEEERRRRVDDVPIRRRRCSRLF [F10D]	4.51
DEEERRRRVADVPIRRRRCSRLF [F10A]	4.88
DEEERERRVFDVPIRRRRCSRLF [R6E]	4.16
DEEERPRRVFDVPIRRRRCSRLF [R6P]	3.79
DEEERNRRVFDVPIRRRRCSRLF [R6N]	3.87
DEEERYRRVFDVPIRRRRCSRLF [R6Y]	1.78
DEEERCRRVFDVPIRRRRCSRLF [R6C]	2.83
DEEERGRRVFDVPIRRRRCSRLF [R6G]	4.09
DEEERFRRVFDVPIRRRRCSRLF [R6F]	1.35
DEEERARRVFDVPIRRRRCSRLF [R6A]	3.51
DEEERSRRVFDVPIRRRRCSRLF [R6S]	3.8
DEEERDRRVFDVPIRRRRCSRLF [R6D]	4.26
DEEERIRRVFDVPIRRRRCSRLF [R6I]	2.36
DEEERHRRVFDVPIRRRRCSRLF [R6H]	3.17
DEEERMRRVFDVPIRRRRCSRLF [R6M]	2.58

Variant	protein stability index
DEEERTRRVFDVPIRRRRCSRLF [R6T]	3.66
DEEERLRRVFDVPIRRRRCSRLF [R6L]	2.69
DEEERKRRVFDVPIRRRRCSRLF [R6K]	3.35
DEEERWRRVFDVPIRRRRCSRLF [R6W]	1.56
DEEERQRRVFDVPIRRRRCSRLF [R6Q]	3.79
DEEERVRRVFDVPIRRRRCSRLF [R6V]	3.2
DEEERRRRDFDVPIRRRRCSRLF [V9D]	4.46
DEEERRRRIFDVPIRRRRCSRLF [V9I]	2.42
DEEERRRRGFDVPIRRRRCSRLF [V9G]	3.87
DEEERRRRLFDVPIRRRRCSRLF [V9L]	2.53
DEEERRRRPFDVPIRRRRCSRLF [V9P]	3.44
DEEERRRRNFDVPIRRRRCSRLF [V9N]	3.75
DEEERRRREFDVPIRRRRCSRLF [V9E]	4.03
DEEERRRRYFDVPIRRRRCSRLF [V9Y]	2.64
DEEERRRRRFDVPIRRRRCSRLF [V9R]	2.71
DEEERRRRMFDVPIRRRRCSRLF [V9M]	2.47
DEEERRRRKFDVPIRRRRCSRLF [V9K]	3.72
DEEERRRRHFDVPIRRRRCSRLF [V9H]	3.54
DEEERRRRFFDVPIRRRRCSRLF [V9F]	2.19
DEEERRRRQFDVPIRRRRCSRLF [V9Q]	3.45
DEEERRRRCFDVPIRRRRCSRLF [V9C]	2.74
DEEERRRRAFDVPIRRRRCSRLF [V9A]	3.43
DEEERRRRTFDVPIRRRRCSRLF [V9T]	3.65
DEEERRRRWFDVPIRRRRCSRLF [V9W]	2.94
DEEERRRRSFDVPIRRRRCSRLF [V9S]	3.47

Variant	protein stability index
DEEERRRRVFLVPIRRRRCSRLF [D11L]	2.33
DEEERRRRVFWVPIRRRRCSRLF [D11W]	1.76
DEEERRRRVFRVPIRRRRCSRLF [D11R]	2.25
DEEERRRRVFVVPIRRRRCSRLF [D11V]	1.99
DEEERRRRVFMVPIRRRRCSRLF [D11M]	2.08
DEEERRRRVFGVPIRRRRCSRLF [D11G]	2.65
DEEERRRRVFAVPIRRRRCSRLF [D11A]	2.73
DEEERRRRVFFVPIRRRRCSRLF [D11F]	1.89
DEEERRRRVFYVPIRRRRCSRLF [D11Y]	1.67
DEEERRRRVFCVPIRRRRCSRLF [D11C]	1.53
DEEERRRRVFPVPIRRRRCSRLF [D11P]	3.34
DEEERRRRVFNVPIRRRRCSRLF [D11N]	3.06
DEEERRRRVFEVPIRRRRCSRLF [D11E]	2.68
DEEERRRRVFHVPIRRRRCSRLF [D11H]	2.19
DEEERRRRVFQVPIRRRRCSRLF [D11Q]	2.4
DEEERRRRVFIVPIRRRRCSRLF [D11I]	2.93
DEEERRRRVFSVPIRRRRCSRLF [D11S]	2.75
DEEERRRRVFTVPIRRRRCSRLF [D11T]	2.84
DEEERRRRVFKVPIRRRRCSRLF [D11K]	2.51
